Experimental data published in the DeepSol protein solubility set.

assay: soluble on expression in E. coli; label from the status in PepcDB or PDB records

Question: For “MNPYQAHRIKKLKYQLENAESYEEWKSTALQLDEETGLQEWKYDNCSAYFDAELISYRLNLLRKYRLQQRVMDSVYLLQEGLTHDIANIGHPMLFAATYVGTKQIIEDYIEEVSLSLAFIAASQCQTLTVAEKLKFFKNCQKTYGLEHHHHHH”, which “soluble on expression in E. coli” value is on record?
Answer: not soluble

Question: Which “soluble on expression in E. coli” value does the source give for “MNQEQNDIAIRVSNLSKCYHIYDTPRDRLKQFILPRLHHLTGQTPRQYFREFWALRDVSFEVKKGETIGIIGRNGSGKSTLLQMICGTLNPTSGSITTYGRIAALLELGSGFNPEFTGRENVYMNASVLGLSQEETDARFDDIAAFADIGEFIEQPVKTYSSGMMVRLGFAVQAQVKPDILIVDEALAVGDAKFQAKCFDRLQQLKDGGTSILLVTHSSEQIVTHCSEAILLDGGDVIEHGEPRYVVNHYMDLLFGKERKSYSASAFSTESNSVEPTQDDNLSLNFIDDVFSSHANYNEHEYRWGDGTATILDFYLLTDNEPYPSVITSGQSVVLGVAVRFYEDLVRPILGITIKTKEGVTVYGVNSETLETDEIKVLGSKGTTALIKAEFICRLAPGDYFISLGLATRKGEEIVPHDRRYDAIYLQIAPVTKFFGLVDLGLKLSAQNTSLLEHHHHHH” here?
Answer: soluble

Question: Which “soluble on expression in E. coli” value does the source give for “MNQLIFDFAAHDYPSFDKFLGTENAELVYVLRHKHGQFIYVWGEEGAGKSHLLQAWVAQALEAGKNAAYIDAASMPLTDAAFEAEYLAVDQVEKLGNEEQALLFSIFNRFRNSGKGFLLLGSEYTPQQLVIREDLRTRMAYCLVYEVKPLTDQEKIDALASMAAARQVTVDSEIFEYLLKHWRRDMDSLMMMLDTLDNYAVTMGKRITLPLLRQLLKQQETQ” here?
Answer: not soluble

Question: Which “soluble on expression in E. coli” value does the source give for “MNQLIFDFAAHDYPSFDKFLGTENAELVYVLRHKHGQFIYVWGEEGAGKSHLLQAWVAQALEAGKNAAYIDAASMPLTDAAFEAEYLAVDQVEKLGNEEQALLFSIFNRFRNSGKGFLLLGSEYTPQQLVIREDLRTRMAYCLVYEVKPLTDQEKIDALASMAAARQVTVDSEIFEYLLKHWRRDMDSLMMMLDTLDNYAVTMGKRITLPLLRQLLKQQETQLEHHHHHH” here?
Answer: soluble

Question: With “MNQPIELSLEQQFSIRSFATQVQNMSHDQAKDFLVKLYEQMVVREATYQELLKHQWGLDSGSTPA” as the sequence, how does the “soluble on expression in E. coli” value read?
Answer: soluble

Question: Which “soluble on expression in E. coli” value does the source give for “MNRFSGKSVIVTGSSSGIGRATAVLFAKYGAQVTITGRDAGKLEATKKKMLKVMKNPENVCVVVANLTDSDGQDEIVQSALDAFGRIDVLVNNAGANVVDGTFNTDQSTELYHKTFQINFEAVIEMVKKTKNHLIESKGEIVNVSSVAAGPQALAPSPYYAASKAALDQYTRCVALDLILQGVRVNSVSPGVVTSGFLGAMGMSEQVQKQIEENFTSNRACIPAGVCGKPEDIAELIIFLADRKRSSYIIGQSIVADGGTSLVSGLTAQNIQRNN” here?
Answer: not soluble

Question: With “MNRRDFLQFGLRGIVVAGLGKGFYNTTSEQVEIVRTSVKIRNLPAALQGLKIGLLTDLHASFVVSSETIRSAGRLLMAEKPDLIVMTGDYISGSTRFLSGSVGQFKKEYLSKCIDALSGLKAPLGIYGVLGNHDFWSGPESVKAICEAFTRQMGMVWLRNSSVEIRRGRGSLHLLGVDDYWEPSCSLAAACKGVDTDGIKILLSHNPDINDEIFLLRERIDLVLSGHTHGGQVVVPFLGQPVMPSKFGQKYRAGLVRDGDRQTYISRGVGCLLAPIRLNCPPEATVLTLTLEHHHHHH” as the sequence, how does the “soluble on expression in E. coli” value read?
Answer: soluble

Question: Which “soluble on expression in E. coli” value does the source give for “MNRSTISPVEARQQFRAGLIQPTSGWSAGFAQANLISMPQDLAYDFLLFAQRNPKPCPILEVLNAGETFGGIFGSNATEADIRTDAPQYRIYAHGELIDSPASAVDYWRDDLVSFIIGCSFTFEHPMVQAGVPVRHLEAGRNVPMYETSLACRPAGSLSGNLVVSLRMIPASQVADAVRITSRYPAVHGAPVHIGDPSLIGIDDINNPDFGDAPLSEPSDVPVFWACGVTPQAMVMSSKPPLAITHAPGHMLITDAPDLGFQVPLEHHHHHH” here?
Answer: not soluble

Question: Which “soluble on expression in E. coli” value does the source give for “MNSENSFSSSEHITVLLHEAVNGLALKENGIYIDGTFGRGGHSRFILSQLSSNGRLIAVDRDPRAIAEAHKIQDLRFQIEHNSFSHIPEICDKLNLVGKIDGILLDLGVSSPQLDEAERGFSFMKDGPLDMRMDTTQGLSAEEWLKQVSIEDLTWVLKTFGEERFAKRIATAIVDFNKSAVKNGTEFLSRTSQLAELISQAVPFKDKHKHPATRSFQAIRIFINSELDELESLLNSALDMLAPEGRLSIISFHSLEDRMVKHFMKKQSKGEDIPKGLPLREDQIQRNQKLRIIGKAIQPSDAEIQANPRSRSAILRVAERILEHHHHHH” here?
Answer: soluble

Question: Which “soluble on expression in E. coli” value does the source give for “MNSKSRITAIGTHVPNQILSNNDLEKMIDTNDEWIVQRTGMKERRIASEDEYSSNLAIKAVENLCTTYKKNLEDVDCIIVATTTADYVFPSVACQIQQYFNIPHTMAFDLNATCAGFTYGLHVGNSLITSGSHKKVLVVATETLSKVTDYTDRTTCILFGDGAGAILLERDENKPSFIAYHMGTNGHGGIHLYRTNLSTTMNDTPLQTNEKIVQNGREVYKWATRTVPVGIKELLHTANMKMDDIDWFIPHSANLRMIESICEKSQIPIHKTLTSVEYMGNTSSVSIPLALDLARKKGKLNNGDTLLLYGFGGGLTHLGLIVEWDLS” here?
Answer: not soluble

Question: With “MNSNYKRYKMLVFDLDGTLLNNNHEIAFLTLEVLLALKEDFKIIIATGRRLSEVKNIRSQLKEISINENYLVTANGAEVFLQENLIFRYAMNYDLAKEILKINTDNVDVNLYTFDTWYSNADVKSPIMKHFIKDLGLNVIIGDLTKLNVDSVSKIVYYCDDLAILNKLDTEIKSKDFQDTRVFFSSKDLLEVTNINANKYNAIKNIAFLESIPLCDVLAFGDNNNDYEMLKNLGKGVLMKNANEFLKINLAKNEITRFSNNEDGVARFLIDFFKLNIKY” as the sequence, how does the “soluble on expression in E. coli” value read?
Answer: not soluble

Question: For “MNSSSASIPRTAHAAVPTAHASRYLQQLCKHWAHKFEAEFDPIQARIALPLGEARLTARPDALLIDLTATDAANMTTFQQVVISHIERFAFREELRFVWG”, which “soluble on expression in E. coli” value is on record?
Answer: not soluble

Question: With “MNTENPIEKPFRKTGDPVDLTSESPLHPRRKSRRIMVGPVPVGGGAPISVQSMTNTLTANVPATLQQIAELTAAGCDIVRVAVPSQDDADALPEICRKSPIPVIADIHFQSKYVFQAIDAGCAAVRVNPGNIRKFDEVGPDICKAATDAGISLRIGVNAGSLDKELYAKYGGPTPEALVASALKEAHMFEDVGFHDFKISVKHHDVITMVETYRLLASKGDWPLHLGVTEAGPAWQGTIKSCLAFGALLAEGIGDTIRVSLSAPPAEEVKVGCKLLEYMGLRPRKFDIISCPSCGRAQVDVIQLASAVTEGLKDVTAPIRVAVMGCIVNGPGEAREADLGVASGNGKGQIFIKGKVIKTVPEDQIVDTLLTIANDIAAQMEADGQVPVNSTGPVVVPIQHPGHLEHHHHHH” as the sequence, how does the “soluble on expression in E. coli” value read?
Answer: not soluble

Question: For “MNTFGTRLKFTSFGESHGVAVGCIIDGMPAGVKFDEEFLQNELDKRKGGSKFATPRKESDKAQVLSGVFEGYTTGHPIAIVVFNENAHSKDYDNLKDLFRPAHADFTYFYKYGIRDHRGGGRSSARESVARVAGGAVAAMLLREFDICVQSGVFGVGTFVSNLKEEEFDFEFAKKSEIFCLDPKLESDFKNEILNARNSKDSVGAAVFTKVSGMLIGLGEVLYDKLDSKLAHALMGINAVKAVEIGEGINASKMRGSCNNDALKDGKFLSNHSGGILGGISNGENLILKTYFKPTPSIFAKQESIDKFGNNLKFELKGRHDPCVGVRGSVVASAMVRLVLADCLLLNASANLNNLKNAYGLKLEHHHHHH”, which “soluble on expression in E. coli” value is on record?
Answer: soluble

Question: With “MNTLLSLMNSIEQEARTIYDSYDAKKKALADKKEEELKQLFLEYEQETQLLLEAKREVFFEANRQEQKASKKRLATQQLALHAILEEHKLTVVRELVDKVVETYGH” as the sequence, how does the “soluble on expression in E. coli” value read?
Answer: not soluble

Question: For “MNTLVLPKTQHLVVFQEVIRSGSIGSAAKSLGLTQPAVSKIISDVEAYFGVELIVRKNTGVTLTEAGQVLLSWSESITREMKNMINEMNSMTCNTVVDVSFGFPSLIGFTFMSDMIHKFKEVFPKAQVSMYEAQLSSFLPALRDGRLDFAIGTLSNEMQLQDLHVEPLFESEFVLVASKSRTCTGTITLESLKDEQWVLPQTNMGYYSELLTTLQRNGISIENIVKTDSVVTIYNLVLNADFLTVIPCDMTTPFGSNQFITIPIQDTLPVARYAAVWSKNYRIKKAASVLVELAKQYSSYNGCRRRQLIEIE”, which “soluble on expression in E. coli” value is on record?
Answer: soluble

Question: Which “soluble on expression in E. coli” value does the source give for “MNTNERIVPLLPLRGVLVYPTMVLHLDVGRDKSIQALEQAAMDENIIFLAMQKEMNIDDPKEDDIYSVGTVAKVKQMLKLPNGTLRVLVEGLHRAEVVEFIEEENVVQVSIKTVTEEVEADLEEKALMRTLLEHFEQYIKVSKKVSNETFATVADVEEPGRLVDLIASHLPIKTKQKQEILEIISVKERLHTLISIIQDEQELLSLEKKIGQKVKRSMERTQKEYFLREQMKAIQTELGDKEGKGGEVEELREKIEQSGMPEETMKAALKELDRYEKLPASSAESGVIRNYMDWLLALPWTDATEDMIDLAHSEEILNKDHYGLEKVKERVLEYLAVQKLTNSLKGPILCLVGPPGVGKTSLARSIATSLNRNFVRVSLGGVRDESEIRGHRRTYVGAMPGRIIQGMKKAKSVNPVFLLDEIDKMSNDFRGDPSAALLEVLDPEQNHNFSDHYIEEPYDLSKVMFVATANTLSSIPGPLLDRMEIISIAGYTELEKVHIAREHLLPKQLQEHGLRKGNLQVRDEALLEIIRYYTREAGVRTLERQIAKVCRKVAKIIVTAERKRIVVTEKNVVDLLGKHIFRYGQAEKTDQVGMATGLAYTAAGGDTLAIEVSVAPGKGKLILTGKLGDVMKESAQAAFSYIRSRAEELQIDPNFHEKNDIHIHVPEGAVPKDGPSAGITMATALISALTGIPVSKEVGMTGEITLRGRVLPIGGLKEKTLSAHRAGLTKIILPAENEKDLDDIPESVKENLTFVLASHLDEVLEHALVGVKQ” here?
Answer: not soluble

Question: Which “soluble on expression in E. coli” value does the source give for “MNTPFDFPEGAGRLVYVRPVPVAELPEDVQSMARGLDHIYALHGADGERLALVRDRHLAFVLARQNDLAPVNVH” here?
Answer: not soluble

Question: With “MNTPRIPIASHQAVMRCLRDKLQQANLTLQTDYTEPAVSYQQRGATAGTAWLQHWEIRLNPVLLQENQQTFIDEVVPHELAHLLVYARFGRVAPHGKEWRWMMENVLHVPAKRTHRFAVQSVQGKTFTYLCDCQRHELTIRRHNRVLRGETEYRCRRCGKTLRHDVKSSILEHHHHHH” as the sequence, how does the “soluble on expression in E. coli” value read?
Answer: soluble

Question: Which “soluble on expression in E. coli” value does the source give for “MNTQSLMSSTHTIAASDPHIQVMGRTHINDDASLTFGYPGVSLSTIVAGSRLTAEMQSSNGNSWIDVIIDNHPPTSIKLDAQQQTVELFHFPNSGEHRVEIIHRSENWHGQVTLKQLTLTGTQFLPAPVLPQRKILVLGDSVTCGEAIDRVAGEDKNTRWWNARESYGMLTAKALDAQVQLVCWGGRGLIRSWNGKTDDANLPDFYQFTLGDTGQAPQWDHHRYQPDLIISAIGTNDFSPGIPDRATYINTYTRFVRTLLDNHPQATIVLTEGAILNGDKKAALVSYIGETRQQLHSNRVFYASSSHHPGDNSDAHPTKDQHAAMARELTPQLRQIMDWLEHHHHHH” here?
Answer: soluble

Question: For “MNTSTSAFDFGSSTASSAATSTTSSQPDANDHLSRLAAMTQGVGKEDPETSSTPSTEASLYPGISAAYMQSYGWPQNYNYFGQPLGPATFPGWPQCYPNTAWPNYGELFASSKKGRQTYQRYQTSVLEAKFQQSSYVSKKQREELRLQTQLTDRQIKIWFQNRRMKAKKEKQRVDDHTEHTPLLPANPPKGMGMDMDDEKKWQMAHWPPAAAHNPYQYPLCPP”, which “soluble on expression in E. coli” value is on record?
Answer: soluble

Question: With “MNTTGETTQPFYSHCDMNDPLCRAERLRTQFDYYRWHSLQPDDNDDVDTYTTDIATRIGKTQRYVCDHLDAIYYLTQLPQLHTVYQQLWHLDDTRLIAITRIISALPTTYYDAIDTHLTRWLTPTQPAQTIPSTRAITRFLRKTITHLGFHLDNTRKPEQYVYIYDAGHGLAGIDALIHAGVAEMFETTLRSIKKTHSCDDSTALQLLLEDKTSVVINVYDTGTGITYTPQGTALPQVPEHLVIRVLGDADVAVSTGYRFTEAMRRFIQGRDGVCRFPGCGVPAQWCDIDHVEEYDLGGVTGAVNAQCLCRHHHNVKTSRRVDCEIGAGGVVTWQIGDRRVVTTPEGVLAGQTFRQRREKKIKKAA” as the sequence, how does the “soluble on expression in E. coli” value read?
Answer: not soluble
